Like-named read-outs stand apart in the source and are kept apart here.
Key:
Experiment in all cases: FRET or BRET
[1] = biological target: S. oneidensis RNA polymerase core (α, β, β′, ω), assembled in vivo (Shewanella oneidensis MR-1) (UniProt Q8EK47)
[2] = biological target: S. oneidensis RNA polymerase core (α, β, β′, ω), assembled in vivo (Shewanella oneidensis MR-1) (UniProt Q8EK47); remark: listed apart in the source
[3] = biological target: S. oneidensis RNA polymerase core (α, β, β′, ω), assembled in vivo (Shewanella oneidensis MR-1) (UniProt Q8EK47); remark: listed apart in the source

initial σ^70 retention (%) [1]: 45%
σ^70 retention half-life [1]: 0.717 h
initial σ^70 retention (%) [2]: 59%
σ^70 retention half-life [2]: 1.25 h
σ^70 retention half-life [3]: 1.33 h
Substance: Cy3B-labelled single-cysteine S. oneidensis σ^70 derivative N399C (from UniProt Q8EHE1 1-616) (natural protein)

From publication PMC3084661
